Test results reported in patent US20240026407A1, “MODIFICATION OF SAPONINS” (GLAXOSMITHKLINE BIOLOGICALS SA, priority 2020, published 2024).

B1: 102 (protein, listed as Bacteroides fragilis)
chain: MKATTSLATSCRRLLLWGVLTLQCLFSTAQKRFTADVEQQAEKILSQMTLDEKLSYIGGINWMYTRPLERFGIPRLKMSDGPQGLGTHGPSTAYPCALMLAATWNEQLATEYGSALGKDCRARGVHVLLGPAVNIYRAPMCGRNFEYMGEDPYLTSRMATGYIKGVQGQGVMATIKHFIANNSDYDRDHISSDIDERTLNEIYFPSFRAAVQEAEVGAVMSSYNLLNGIYTTEHPWLLKDVLRQQWGFKGILMSDWGSTHHCIPAVKGGLDLEMPAGSKMQPEELKYYLRTGDITIETIDEKVRHILQTLLAFGFRETQQPDTHIPLKNPQCAQTALNVASEGLVLLKNTNQILPIRSGKVKTIAVVGKNAQGYVCGGGSGEVHPFQYVSVLDGIRKEAAERDIRVEYLDVYDYLPTIIFTDTERKQKGFRAQYFDNMNLEGTPKVEQTETKINYSWSGGTGLKEMPKEQFSVRWNGTICPQETDEYLFTLGGDDGYRLYIDGKLIADEWHEGAFRNSTYRCMLEAGKKYDLKIEYFQKGGGAAVNFIWKQKNASNNLFVEALNRNDLVVACIGFNSDTEGEGRDRTFELPEDEAQLLQNTLQSKRPVVGIVNAGGNVEMQSWEPSLKGLLWAWYGGQEAGTAIARTLFGELNPSGKLPITFEKRWEDNPTFHSYYDPDGDKHVEYAEGIFVGYRGYDKLKREVQYPFGYGLSYTRFKLSAPTVGTPKTDGSVTVTCKLTNTGRTAGAEVVQLYVSNKDTTVEHPEKELKGFRKVYLEPGETKSIEITVPAEAFSHYDTGSRRFVIDRGSHDILLGFSSRDIKAKMSVGISR
B2: 84 (protein, listed as Tenericutes bacterium)
chain: MVNEELKTLLHTLSLTTKLKLLTGANFWESEKVLGTDLPIIVMNDGPFGVRKPTVNVDSGMLMEVIPATAFPTTSALASSFDPELLEKMGKTLATECIDQGVDLLLGPGINIKRSPLCGRNFEYFSEDPYLTSEMASGLVRGLQSKGVGATLKHYAVNNQEKERYTTNAIVDKRALNEIYLRPFHNVIKNTEPFSVMCSYNQINGRHASRHYKLLTEKLRNEANFKGLVVSDWGAVVDHVDSINAGLNLEMPGGYQNTAELEKAVKDGEIKLETIDEMITPLLKFMMYKRDNPKPKVKCDYKKNLEVAQEIAEKSAVLLRNEDNLLPINKTAKVGLIGNFAIKPRYQGSGSSQINPHTLVSVHDAFIQNDVNFVYADGYAEHEVKPNKKKIAEAVKVAKNSDVVVLCVGLPESYEVEGYDRKTLDMPPSHNELIKEVAKVNENIVIVLSTGSPVTMPWINDVKSILLTHLAGSMTGPATYNLLFGVTNPSGKLSETYPLSLDKGLPGGEFLTSDQNVLYRESLYVGYRYYDTFREQVLFPFGHGLSYTQFNTSHHEIEEVKDGYNITMEVTNIGHIRGAEVIGIYTGKSRSLLYGPRKELRAFKKVYLDPGEKQKINIFLPTESLKAYCPVKQEWVLENVNYNVYVGINVQTTDEIFQILVDDANDLSYLKNYQKENEMYYRRADFNPSIKDFTTLFGGESLPLFFANRKRPFTLANNISDTTDYWWGRTIYKIMAKTSRKLAGDDVVLQEMAVETIKELPFRSLSALSSGEVSTNQRDAILLLVNGKPIRGIFKFLRKKK
B3: 178 (protein)
chain: MSELYCPIPPRDQDIYRFRQQFGANLGSTFVLGPHDNTGESNELQLLKTSLASTGLEQTRQKWQSHWHSALTDDDLVWLKDVAQCRTLRLPLSFYSLGPLFCRGTAFEGDPSEVYHHCWSTVKHLIEKCWFHGIGILIDFQASASGINLCASAKDRTIARDCVAFLAQEITFHSMSAVVGLSVSSGCEPAPDMCECYDEILKIANAIDACLPVYIDDNQAQCNKRVFKGCESDIPQFKSDISIGKIQIPSQMMLPETEVREKINKAKAERSGFQEKVLSQVSESWGSNERQSFVHGWNLGYDDALRFFGAAVQGILAPRKGADKIYDIELWVQQRKRDIDPEQLGENSAAWEDGLRRGIQDFYNIIGI
modifications: Aspergillus niger
B4: 302 (protein, listed as Rhodococcus sp.)
chain: MTTRPDLTLEQQAALLSGHDFWSTEAIEEAGIPSVVLTDGPHGVRYQSGDSDHLGLHASLPATCFPLAVAVGSSWDRSVAEEVGRAVGREARALGVHVVLGPGVNIKRSPLCGRNFEYYSEDPLLSGVLGAAHVRGLQSVGVGACVKHFAANNQETDRMRVSADVDDRTLREIYLPAFERVVAEARPAAVMCSYNKVNGVSAAENRWLLTEVLREQWGFAGVVVSDWGAVADRVAGVTAGLDLEMPGSGGGTDRQVVDAVRDGRLDPRLVEASAHRVLALSDLVRPAAGDLDLDGQHALARRLAADCAVLLKNADGVLPLRRGQHVAVLGSFATTPRFQGGGSSHIAPTRVDPALDAVRALAAAHGLTVSAADGFPLGADGDARALLDEAVRVAAAADVAVVFAGLTEREESEGFDRDTLDLPPVQVALVRAVARAAPRTVVVLAHGGVVSLEGWHDEVDAILDGWLLGQAGGSAIADLLLGVATPSGHLAETVPLRLEDTPSYLNFPGEQGHVRYGEGVMVGYRGYETLRRAVRYPFGHGLSYTTFVTESLDVALGGDGTVAVRVRVRNAGDRAGKHVVQMYVATDAGPVRRPVRELRAFEKIELAPGEARDVELTLERRAFAYWDVELDDWVVAPGEYAIQVCADAATVLEARTVTLAGDVVSRPLSMESTVGEWFSHPTVGPAFLEVLAGATGSAPTPDPQEHAGLLRMVESIRMAQFLTFLPIPVPQEKLDELLALGGTVANSATDAAAGNRDHPAPTPPGQPGGP
B5: 4 (protein, listed as Microbacterium azadirachtae)
chain: MTLPPFDVDTVLAALTLEEKASLLSGLDDWYTQPLDRPGLPQRVPSIEVGDGPHGLRKETGVDMVWVPATGFPTASAMGASWDRQLMRRVAAAIGEEARAEGVQVVLGPGVNMKRSPLCGRNFEYFSEDPVHSGELGAAYVDGVQAVGVGTSLKHFAANNQEIERTRISVVADERTLRETYLSAFERVVTKADPWTVMCSYNRLLGVHASQNHWLLTEVLRDEWGYRGAVVSDWNAVHDRVAALRAGLDLEMPGTQGATDAEIVAAVQDGQLDIGVVDAAARRVLELVARAYPGADRVNGAVMDLGHAAGDRLTAEQLRLLRAAEHHELAREAAIGSMTLLRNETIPGGGGPALPLEEHSEGAVAVVGAFAEHARVQGGGSSGVDPTRIDAPLAAIRAIANGRVHYAPGYIYEVKNAYQDDNLAILAAHGVVTEEEKPRVARRSATLAKELQLAEAVQHLGKRPLSAAAERLIDEAAVIAGQAETIVVFAGLPLSYEQEANDRDTLALPADQVALILRMADVREKTGARLVVVLSNGSPVTMDPWHDRVDAIVEAWLGGQAVGSAVAEVLFGRSNPSGKLAETFPLALEDTPGFPNWLGERGTVLYGEGVFIGYRWYDALRREVRYPFGHGLSYTTFSYSDLRVDLVDAEVGRVTVTCTVTNTGDVAGQEVVQLYVGDPDAEVQRPLRELRGFEKVKIEAGESTRVRFELLNRDFAYWDSAAVRPDGKTGLWRREGGEFRIEVGASSRDIRLSESIVLSDDPSIPPLVPDAELLDIAASRFVQGHAG

Assays:
Assay type in all cases: biochemical, Quillaja saponaria
[1] = Experiment 4-1: screening of glucosidases for deglycosylation with purified QS-18 (0.04 mg/ml) at pH 7.5 and room temperature; conditions: pH 7.5, room temperature, 20 h, clarified E. coli lysate, QS-18 2150 to QS-21 1988 by LCMS/MS
Procedure: Nucleotide sequences were sub-cloned into pET24b+ for expression. 10 uL of E. coli cells (One Shot® BL21(DE3) chemically competent E. coli) were transferred to each well of a 96 well PCR plate (prechilled on ice). 10 uL autoclaved water was added to the DNA, resuspended by pipetting, and 1 uL of plasmid DNA (15-30 ng) was transferred to the competent cells. Immediately after addition, the resulting mixture was mixed by pipetting. Cells were heat shocked by placing the plate in a thermal cycler at 42° C. for 30 seconds then transferred directly to an ice bath for 2 min. 100 uL sterile Lysogeny Broth (LB) medium was added to each well containing transformed cells. The content of each plate was transferred into a 96-deep well plate pre-aliquoted with 400 uL LB and the plate was incubated at 37° C. with shaking and 85% humidity for 1 hour. After outgrowth, 500 uL of sterile LB containing 100 ug/mL kanamycin was added to the plates containing cells and plates incubated at 37° C. with shaking overnight (18 hours) with humidity control (85%).
1000 mLs of Overnight Express Media was supplemented with 1 mL kanamycin 50 mg/mL and 20 mL of 50% v/v glycerol added (50 ug/mL kanamycin final and 1% glycerol). 96-Well Assay Block 2 mL plates were aliquoted with 380 uL of media per well. Pre-inoculum (20 uL) from transformation plates was added. The plates were sealed appropriately and incubated at 37° C. at 300 with shaking for 2 h. After 2 h the temperature was lowered to 20° C. and incubation continued for 20 h.
The liquid cultures were centrifuged for 10 minutes at 4° C. The supernatant was discarded, plates blotted on an absorbent material to remove residue and the plates frozen at −80° C.
Lysis buffer was prepared according to the following protocol: • 1. Polymyxin B sulphate (0.5 mg/mL) was suspended in 100 mM potassium phosphate pH 7.5 • 2. The mixture was sonicated until polymyxin B sulphate had dissolved • 3. Lysozyme (1 mg/mL) and benzonase (0.1 uL/mL lysis buffer) were added
2 copies of each cell pellet plate were removed from −80 degC freezer and allowed to thaw. 200 uL of lysis buffer was added to each well of one copy of the cell pellet plates. Plates were shaken at room temperature for 10 mins. 190 uL of cell pellet/lysis buffer was transferred to a corresponding fresh cell pellet plate. These plates were incubated at room temperature with shaking for 2 hours. Lysate was clarified by centrifugation (10 min, 4 degC).
QS-18 was obtained by analogous methods to Example 3, collecting a QS-18 containing phenyl fraction following phenyl treatment (presence of m/z corresponding to key components was confirmed by MS and the phenyl fraction then used without further treatment). QS-18 solution was prepared by diluting aqueous QS-18 (ca 1 mg/mL) with 100 mM potassium phosphate pH 7.5 to 0.2 mg/ml. 40 uL clarified lysate was transferred into fresh 96 well PCR plates. 10 uL QS-18 solution added to each well of lysate to a final concentration of 0.04 mg/ml. Incubated at room temperature with shaking for 20 h. Quenched with 50 uL MeCN and shaken at room temperature for 10 mins. Samples were analysed by LC-MS/MS using a Waters Acquity H class coupled to a Waters Xevo Tandem Quadrupole (TQD) Mass Spectrometer.
Enzyme activity was calculated as: […]
Candidate enzymes with % conversion >0.72%, i.e. >3 S.D. above negative control, were considered to be positive hits and are listed below in Table 7. Sample results are shown in FIG. 10 for a QS-21 standard, FIG. 11 for negative control and FIG. 12 for treatment with the glucosidase of SEQ ID No. 262.

[2] = Experiment 4-2: screening of glucosidases for deglycosylation with purified QS-18 (1 mg/ml) at pH 6 and 30 deg C; conditions: pH 6, 30 degC, 18 hrs, clarified lysate, LCMS/MS
Procedure: Lysates were prepared in an identical manner to Experiment 4-1 above, except the lysis buffer was prepared in 100 mM potassium phosphate buffer pH 6. QS-18 solution was prepared by dissolving QS-18 in 100 mM potassium phosphate buffer pH 6 (2 mg/mL).
12 uL clarified lysate was transferred into fresh 96 well PCR plates. 12 uL QS-18 solution was added (1 mg/ml final concentration), plates sealed and incubated overnight (30° C.) for 18 hrs. After quenching with 25 uL MeCN and shaking for 10 mins (RT), samples were analysed using the LC-MS/MS protocol described in Experiment 4-1 and enzyme activity determined in an analogous manner.

[3] = Experiment 4-4: screening of glucosidases for deglycosylation of QS-18 in crude bark extract (1 in 20 dilution) to QS-21; conditions: CBE 1 in 20 dilution, pH 6, 25 degC, 18 hours; % conversion of Middle Peak by UV HPLC
Procedure: Lysates were prepared as in Experiment 4-2.
Crude bark extract (CBE) was adjusted to pH 6 by dropwise addition of 2M NaOH with stirring. 25 uL of clarified lysate was transferred to a reaction plate, 22.5 ul of 100 mM potassium phosphate buffer pH 6 was added, 2.5 ul CBE at pH 6 was added. Reaction plates were sealed, incubated at 25 degC with shaking for 18 hours, then quenched by addition of 50 uL acetonitrile (MeCN). Quenched reaction plates were re-sealed and incubated at 20 degC with shaking for 10 min. The reaction plates were centrifuged (10 min, 4 degC) and analysed by UV HPLC with the method below:
Three key peaks of interest are apparent using this chromatography: Left Peak (retention time approximately 2.30-2.35 min) comprising mainly QS-17 family components; Middle Peak (retention time approximately 2.37-2.42 min) comprising mainly QS-18 family components and desglucosyl-QS-17 family components; and Right Peak (retention time approximately 2.44-2.50 min) comprising mainly QS-21 family components. Peak identity was supported by MS/MS.
Enzyme activity is calculated as the % conversion of the Middle Peak present in the crude bark extract: […]

Molecule	Expt 4-1 % conv [1]	Expt 4-2 % conv [2]	Expt 4-4 % conv [3]
B1	0.7%	0.4%	–
B2	0.8%	0.4%	–
B3	0.5%	0.8%	–
B4	17.2%	2.1%	<3%
B5	0.4%	0.6%	–
